# US20230088461A1
# Columns and labels:
# [1] = biological target: cynomolgus monkey GPC3 on SK-HEP-1-cmGPC3 cells (cynomolgus monkey); assay: flow cytometry on SK-HEP-1-cmGPC3 cells, PE anti-mouse IgG Fc
# [2] = biological target: mouse GPC3 on SK-HEP-1-muGPC3 cells (mouse) (UniProt Q8CFZ4); assay: flow cytometry on SK-HEP-1-muGPC3 cells, PE anti-mouse IgG Fc
# [3] = biological target: human GPC3 on SK-HEP-1-huGPC3 cells (human) (UniProt P51654); assay: flow cytometry on SK-HEP-1-huGPC3 cells, PE anti-mouse IgG Fc
# Chain of mouse GPC3 on SK-HEP-1-muGPC3 cells (mouse) (Q8CFZ4 25-553 limits assumed): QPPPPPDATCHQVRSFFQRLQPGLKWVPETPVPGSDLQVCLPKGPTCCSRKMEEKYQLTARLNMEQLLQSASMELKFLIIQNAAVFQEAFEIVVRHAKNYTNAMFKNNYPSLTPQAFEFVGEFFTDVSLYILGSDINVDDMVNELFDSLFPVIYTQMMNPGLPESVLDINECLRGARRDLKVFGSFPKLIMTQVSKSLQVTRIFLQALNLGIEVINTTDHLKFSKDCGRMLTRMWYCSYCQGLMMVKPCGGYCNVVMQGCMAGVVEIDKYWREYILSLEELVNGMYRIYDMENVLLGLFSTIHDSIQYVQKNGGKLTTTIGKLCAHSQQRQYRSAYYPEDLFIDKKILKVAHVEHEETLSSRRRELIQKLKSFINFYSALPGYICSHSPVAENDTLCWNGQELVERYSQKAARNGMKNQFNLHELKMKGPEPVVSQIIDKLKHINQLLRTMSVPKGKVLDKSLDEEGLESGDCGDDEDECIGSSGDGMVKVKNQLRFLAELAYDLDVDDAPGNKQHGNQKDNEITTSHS
substance,measurement,setting,value
ISOTYPE (antibody),"Positive population, %",[1],0.43%
same,"Positive population, %",[2],0.91%
same,"Positive population, %",[3],0.85%
